Experimental data taken from article doi:10.1101/2022.06.27.497840 (bioRxiv, 2022).

T1: MBP-Mlh2 (Saccharomyces cerevisiae (SK1), UniProt Q07980 1-695)
T1 sequence: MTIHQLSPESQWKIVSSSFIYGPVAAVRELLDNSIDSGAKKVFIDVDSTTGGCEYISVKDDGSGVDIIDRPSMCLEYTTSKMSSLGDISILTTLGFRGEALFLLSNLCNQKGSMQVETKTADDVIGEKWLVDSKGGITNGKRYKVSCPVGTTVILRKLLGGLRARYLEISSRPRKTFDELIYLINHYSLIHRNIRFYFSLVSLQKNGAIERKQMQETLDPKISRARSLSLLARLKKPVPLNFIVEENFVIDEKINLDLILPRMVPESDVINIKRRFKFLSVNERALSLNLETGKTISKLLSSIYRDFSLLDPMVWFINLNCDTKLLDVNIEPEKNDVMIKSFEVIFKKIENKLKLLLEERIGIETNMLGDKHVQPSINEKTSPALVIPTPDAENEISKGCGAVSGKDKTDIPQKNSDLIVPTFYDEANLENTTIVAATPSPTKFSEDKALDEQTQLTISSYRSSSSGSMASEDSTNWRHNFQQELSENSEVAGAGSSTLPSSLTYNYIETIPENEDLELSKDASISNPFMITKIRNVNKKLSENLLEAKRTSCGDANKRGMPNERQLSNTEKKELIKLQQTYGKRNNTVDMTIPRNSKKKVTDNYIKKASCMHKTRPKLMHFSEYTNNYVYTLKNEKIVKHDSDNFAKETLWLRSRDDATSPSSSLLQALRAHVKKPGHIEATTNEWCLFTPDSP

T2: MBP-Mlh1/MBP-Mlh2 complex (Saccharomyces cerevisiae (SK1), UniProt P38920;Q07980)
T2 sequence 1: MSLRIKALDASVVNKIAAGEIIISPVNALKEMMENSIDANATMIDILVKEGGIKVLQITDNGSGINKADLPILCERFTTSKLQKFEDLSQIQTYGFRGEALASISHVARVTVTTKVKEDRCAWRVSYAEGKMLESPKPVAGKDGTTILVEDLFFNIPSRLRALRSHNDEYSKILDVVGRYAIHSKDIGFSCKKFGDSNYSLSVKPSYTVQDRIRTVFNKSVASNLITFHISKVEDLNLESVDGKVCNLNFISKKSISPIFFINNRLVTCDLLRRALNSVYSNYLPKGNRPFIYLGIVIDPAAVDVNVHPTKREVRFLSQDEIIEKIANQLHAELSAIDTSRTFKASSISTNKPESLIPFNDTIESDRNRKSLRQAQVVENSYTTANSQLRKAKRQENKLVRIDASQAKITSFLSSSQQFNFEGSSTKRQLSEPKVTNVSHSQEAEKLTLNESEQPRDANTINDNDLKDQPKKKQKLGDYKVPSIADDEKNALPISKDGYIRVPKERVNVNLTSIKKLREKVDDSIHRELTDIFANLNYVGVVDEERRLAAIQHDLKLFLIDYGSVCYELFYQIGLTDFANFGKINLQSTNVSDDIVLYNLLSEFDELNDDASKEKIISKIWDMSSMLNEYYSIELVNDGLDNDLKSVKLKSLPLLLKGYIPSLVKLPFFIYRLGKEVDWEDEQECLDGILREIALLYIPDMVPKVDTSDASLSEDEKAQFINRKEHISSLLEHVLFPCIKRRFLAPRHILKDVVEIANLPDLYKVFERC
T2 sequence 2: T1 sequence

T3: MBP-Mlh1 (Saccharomyces cerevisiae (SK1), UniProt P38920 1-769)
T3 sequence: T2 sequence 1

B1: Rmi1 (subunit of the Top3/Rmi1 complex as used in XL-MS) (natural protein)
chain: MSFSSILSQDITDDITPPAYSATLGSREQIVFRAYQNEPWLAGTASNLILDKKLVIVDRELLFQVLMVENITKSKLTQIDDIKTKLDPKKQKVDRLRSGAQGNGAKKYEVITQVDMEDDGNVADNNCAKENNSNNNSSAAKNKAVFKLTLQSKSGDVFFAINSTPISWSSCMLGSKIVILPGTVFNRGVFILKDSQVIFLGGINRVWNENRDQKFCDYLESKLQRDKQLVNGGSKKRKAND
B2: Top3/GST-Rmi1 complex (complex)
chain 1: MKVLCVAEKNSIAKAVSQILGGGRSTSRDSGYMYVKNYDFMFSGFPFARNGANCEVTMTSVAGHLTGIDFSHDSHGWGKCAIQELFDAPLNEIMNNNQKKIASNIKREARNADYLMIWTDCDREGEYIGWEIWQEAKRGNRLIQNDQVYRAVFSHLERQHILNAARNPSRLDMKSVHAVGTRIEIDLRAGVTFTRLLTETLRNKLRNQATMTKDGAKHRGGNKNDSQVVSYGTCQFPTLGFVVDRFERIRNFVPEEFWYIQLVVENKDNGGTTTFQWDRGHLFDRLSVLTFYETCIETAGNVAQVVDLKSKPTTKYRPLPLTTVELQKNCARYLRLNAKQSLDAAEKLYQKGFISYPRTETDTFPHAMDLKSLVEKQAQLDQLAAGGRTAWASYAASLLQPENTSNNNKFKFPRSGSHDDKAHPPIHPIVSLGPEANVSPVERRVYEYVARHFLACCSEDAKGQSMTLVLDWAVERFSASGLVVLERNFLDVYPWARWETTKQLPRLEMNALVDIAKAEMKAGTTAPPKPMTESELILLMDTNGIGTDATIAEHIDKIQVRNYVRSEKVGKETYLQPTTLGVSLVHGFEAIGLEDSFAKPFQRREMEQDLKKICEGHASKTDVVKDIVEKYRKYWHKTNACKNTLLQVYDRVKASM
chain 2: B1 chain
B3: Top3 (untagged, subunit of the Top3/Rmi1 complex) (enzyme)
chain: B2 chain 1
B4: Top3/Rmi1 complex (as used in MST, XL-MS and D-loop assays) (complex)
chain 1: B2 chain 1
chain 2: B1 chain
B5: Sgs1(1-605) fragment, untagged (domain or fragment)
chain: MVTKPSHNLRREHKWLKETATLQEDKDFVFQAIQKHIANKRPKTNSPPTTPSKDECGPGTTNFITSIPASGPTNTATKQHEVMQTLSNDTEWLSYTATSNQYADVPMVDIPASTSVVSNPRTPNGSKTHNFNTFRPHMASSLVENDSSRNLGSRNNNKSVIDNSSIGKQLENDIKLEVIRLQGSLIMALKEQSKLLLQKCSIIESTSLSEDAKRLQLSRDIRPQLSNMSIRIDSLEKEIIKAKKDGMSKDQSKGRSQVSSQDDNIISSILPSPLEYNTSSRNSNLTSTTATTVTKALAITGAKQNITNNTGKNSNNDSNNDDLIQVLDDEDDIDCDPPVILKEGAPHSPAFPHLHMTSEEQDELTRRRNMRSREPVNYRIPDRDDPFDYVMGKSLRDDYPDVEREEDELTMEAEDDAHSSYMTTRDEEKEENELLNQSDFDFVVNDDLDPTQDTDYHDNMDVSANIQESSQEGDTRSTITLSQNKNVQVILSSPTAQSVPSNGQNQIGVEHIDLLEDDLEKDAILDDSMSFSFGRQHMPMSHSDLELIDSEKENEDFEEDNNNNGIEYLSDSDLERFDEERENRTQVADIQELDNDLKIITERKL
B6: His-tagged Sgs1(1-107) fragment (domain or fragment)
chain: MVTKPSHNLRREHKWLKETATLQEDKDFVFQAIQKHIANKRPKTNSPPTTPSKDECGPGTTNFITSIPASGPTNTATKQHEVMQTLSNDTEWLSYTATSNQYADVPM

Columns and labels:
[1] = molecular target: Mer3-Strep (full-length S. cerevisiae Mer3 with C-terminal 2xStrep-II tag) (Saccharomyces cerevisiae (SK1)) (UniProt P51979); assay: SEC-MALS
[2] = molecular target: B3; assay: cross-linking
MBP-Mlh2 = molecular target: T1, MBP-Mlh2; assay: cross-linking
[3] = molecular target: T2, MBP-Mlh1/MBP-Mlh2 complex; assay: pull-down
MBP-Mlh1 = molecular target: T3, MBP-Mlh1; assay: cross-linking
[4] = molecular target: T2, MBP-Mlh1/MBP-Mlh2 complex; assay: cross-linking
Top3/GST-Rmi1 complex = molecular target: B2; assay: pull-down

Mer3-Strep (full-length S. cerevisiae Mer3 with C-terminal 2xStrep-II tag) (from UniProt P51979 1-1187) (enzyme)
stoichiometry N [1]: 2

B1
binding result [2]: binds
binding result (MBP-Mlh2): binds

B2
binding result [3]: binds

B3
binding result (MBP-Mlh1): binds

B4
binding result [4]: binds

B5
binding result (Top3/GST-Rmi1 complex): binds

B6
binding result (Top3/GST-Rmi1 complex): binds
